This is an account of results in the DeepSol protein solubility set.

The nature of the series: soluble on expression in E. coli; label from the status in PepcDB or PDB records.
With “ATFSKLLYRHRQFYTQFPWVEDKIREVCHHLDVSEELLPTGERLSSRRLRTIGIDLGRSSGFYSLAYLFEDPFVNIHGEKRLRPDFLVDVGQRVSFAGAPLYAAIHESIYGGIGGTTTNWSAHRIREEFPGCEENADPRSAEPFYLTGEHIFPWQFDEDPALQPYKAAAEQLATTQWEHSPYDAEVLKEQAAVTAACVYLDDAFVPFELSMDTAHTYRDLRLHVTNRFQHDGIRWDGAGILSTLRDKVLDH”, the “soluble on expression in E. coli” value was “not soluble”.

Turning to “MAHHHHHHMLCVSVAKDGFAIVLTGLDTKRRAPPHQQRLSRNVCFHQTKAKEFVARFHQPCFLAWSHRTIGHPDALQDGARRRQEYKPSHSHPFFRCNEGAHQHMCG”, the “soluble on expression in E. coli” value is reported as “soluble”.

On to “MSSSPAVKGLTDEEQKTLEPVIKTYHQFEPDPTTCTSLITQRIHAPASVVWPLIRRFDNPERYKHFVKRCRLISGDGDVGSVREVTVISGLPASTSTERLEFVDDDHRVLSFRVVGGEHRLKNYKSVTSVNEFLNQDSGKVYTVVLESYTVDIPEGNTEEDTKMFVDTVVKLNLQKLGVAATSAPMHDDE”, for which the “soluble on expression in E. coli” value is recorded as “soluble”.

Consider “MEPLKHECGIAMVRLRKPLSYYHDKYGTWMYGLNKLYLLMEKQHNRGQEGAGLAVVKLNSRPGEEYLFRERALGANAISEIFDSVHKDFQAYSREELGDAEFAASQIPYAGECYMGHLRYSTTGKSGLTFVHPMIRRSNWRAKCLSICGNFNLTNVDGIFDEITSVGQHPRNMSDTHILLEQIGHRLDREVERLFRIGKEQNLKGMDITHFIEERIDLSNVLKKCSPFWDGGYVMCGLTGSGESYAVRDPWGIRPAFYYIDDEIVVTASERPVIQTVMNLSAEAVRELMPGEAIFVNSKGEPRIERILETKNYQACSFERIYFSRGSDQDIYRERKALGYLLSERILRAIDYDISHTVFSFIPNTAEVAYYGMLEGIDHYLDECKIREIRENPNMSEAKLREILGRKVRSEKVAIKDIKLRTFITEGNSRNDLAAHVYDITYGTVQAGVDNLVVIDDSIVRGTTLRQSIIGIMDRLQPKKIVIVSSSPQIRYPDYYGIDMRKMREFVAFRSAVALLQERGMEQVLHDAYAKALELRKLSSGQEVENVVKTIYKPFTAEEISAKMVELLKPEGVRAKVEIVYQSLEGLHQAIPNHPGDWYFSGDYPTPGGAHLVNEAFISYMEEDYGK”, for which the “soluble on expression in E. coli” value is given as “not soluble”.

Take “MGSDKIHHHHHHMANQVDIMKDEVAKMTLDFTEPQEILLEISPSLQKSAWQESQVYATPSSRWCAYTNQICLYAFLNWIKTESVSKASVWYSSPGIPAFWEFVNGTAILLEEKRVVLIPSEAIDDSELEVPQEWVDIPSWVADYYLAVQVTPDGEWVRIWGYITHQELKSLAHYDQVDRTYCIDARYLIKDLNAFWITYQFCIKEEMKAAIAPLPELSTAQAENMQQLLSDSSVTFVRLAVPFTTWAALLDNEQWRQCLYEQHQRCLRRAVPTQFSQVQVNLSRWLLQIYDASWQAIETFFEPNTSSLAFNFRSSSGLNAAAIKRAKLIDLGMQIEAQKVILLVALMPEVNQQVSIRVQLHPACNQPYLPANIKLVLLSEQGEILQEVQARVQDMYVQLKLFDGEVGERFSIQVTLDSCQITENFVI”: the “soluble on expression in E. coli” value is “not soluble”.

Take “MLFDHLRDEVMRLDAGITQEVLKLYIAFKAETNFVDVVPQKSRLRLSLNMQFHELVDPKGIAKDVTNVGRWGNGDVEIGFSDLAQLPYIMGLIRQAFEKQMESALV”: the “soluble on expression in E. coli” value was “not soluble”.

Turning to “MGSDKIHHHHHHMKNAAISDSTLVSQYIQGNEEAFAELIKRHKSKVYSTIYLIVKDRYLAEDLLQDVFIKVIHKMKGGQYNDEGKFLPWVVRIAHNLAIDYFRRNKRYPTIVMDEGMNIFNSLNFSEDSTESIQIKGENEALIRSLIHKLPESQREVVLMRHFSDMSFQEIADSTGVSINTALGRMRYALINLRKELTKQPKPIVYDKNVYPK”, the “soluble on expression in E. coli” value is given as “not soluble”.

Consider “GPGSMPASASTRTVGDSSKNASTSSVTNAVKDPNVTLSRADVEAAFAFFDLHNHKCLKPATLKERLSAFYPNMTSSEYKFLLDEASGAPFTVDTLWNIIDNFNTTRTAMPPAVAGSLRFDPIREAFRIYDPQGSGSVDVVVLADIMKTIGFGDLSPNELTLLIRPADFDNDGKISLEDFMNFLSNHR”, for which the “soluble on expression in E. coli” value is “soluble”.

Consider “MKWLLLITLSLYSFIVQSAPCGLTNVGEQRGTYILKPLSMKGNLTAEKIENTGNIIECADLQETTNAIKVHFLTQNALRFKVGSRHYIINFPFESDGKKNSASREVIL”, for which the “soluble on expression in E. coli” value was “soluble”.

In the case of “MESTLSLQANLYPRLTPAGAFYAVSSDAPSAGKTLLHSLLKADADEMVSSEKLLTWADTADIDTALNLLYRLQKLEFLYGDENGHSDGINLSDEQLPLLMEQLSGSGKALLVDRNGLYLANANFHHEAAEELGLLAAEVAQMEKKYRLLIKNNLYINNNAWGVCDPSGQSELTFFPLYIGSTKFILVIGGIPDLGKEAFVTLVRILYRRYSNRV”, the “soluble on expression in E. coli” value was “not soluble”.

With “MNLSIFGLKNIPYLKEGDSIEKLIEESIKTSEFFIEDNDVLCIASKVVSIAEGQVMSLNEIQVSDVAKEIHRNIPRKDPRIIEIMLNLVNRDLSRLDIKKNYIGCRLENGLKLTSGGIDRKSVDEVFLLPNNPDASAKRISEYLKKSLGKNVAVVITDSDGREDKRGATQVAIGIYGIHPLRKTEVIDSQGETIKFQEETLCDMIAACAGLVMGQRGTGIPAVLIRGLDYKWSENTSIKEALNE”, the “soluble on expression in E. coli” value is on record as “not soluble”.

In the case of “MQAAITVAIPILYKDSVSCSHAESEHFSGTGVTVIIFEVGRDCMKYSFLRQINACVCFDQYEEMEGLLCNGLYMFFIQYTPTILRGDLFAF”, the “soluble on expression in E. coli” value is on record as “not soluble”.

As to “KNTPVDAIPDLSDVQVIIKTSYPGQAPQVVEDQVTYPLTTAMLAVPGAETVRGYSFFGDSYVYIIFNDDTDMYWARSRVLEYLSQVAPKLPPNAKPTLGPDATGVGWVYSYVLQDKTGQHDLAELRSLQDWFLKYELQTVDGVSEVATVGGMVKQYQVQIDPAKLRAYNLTLQQVNMAIQNGNQETGASVVEVAEAEHMVRTTGYLTSIEDIKSLPLKVTDKGTPLLLGDIADINLGPQMRRGISELNGEGEAVGGVIVMRYGENASEVISKVKDKLEDLQRSLPDGVEIVTTYDRSTLINAAVDNLWKKLAEEFIVVAIVCALFLFHIRSS”, the “soluble on expression in E. coli” value is on record as “not soluble”.

As for “AELLLSDNEDKKQRIKEEKQLKLVKWNFQAPTDEHISQLQTLLGNQAKVSLMSQLFHKDFKQHLAALDSLVRLADTSPRSLLSNSDLLLKWCTLRFFETNPAALIKVLELCKVIVELIRDTETPMSQEEVSAFVPYLLLKTGEAKDNMRTSVRDIVNVLSDVVGPLKMTPMLLDALKSKNARQRSECLLVIEYYITNAGISPLKSLSVEKTVAPFVGDKDVNVRNAAINVLVACFKFEGDQMWKAAGRMADKDKSLVEERIKRTGV”, the “soluble on expression in E. coli” value is reported as “soluble”.

Turning to “MGSDKIHHHHHHMYTIAIDLGGTVVKIGLLSDGEIVDCVRLPSRLALGLALNLPKIKEAIDRLLAAWRIDVAALRCIGLAFPGLVDPIHNRVISTNEKYDDACSISLDKWAWENWEVPFCMDNDARLAVAGEWWQGAARGKNNVVMMTIGTGIGTGVVIDGRLLYGQHFQAGSLGGHFVLDYKGRRCSCGNKGCVEALSSSFFLPTIIREHALLSESFKRDADIYDFKRIFRLAQEGNTDALLIRNECMDIWASAIITYIHAYDPEVVILGGGILKSQEVIIPYISKRVDELAWCPSGKVPVVPAILGDDAALFGLEYFMVKQQQNERICI”, the “soluble on expression in E. coli” value is reported as “not soluble”.

As to “MAISIKGVNTGVIRKSNNFIALALKIKEPRNKESLFFMSVMELRDLLIALESRLHQKHKLDAAAHLQYEQARDKVIKKMAENIPEILVDELKNADINRRVNTLELTDNQGENLTFVLTLHDGSKCELVVNELQIEMLARAIIHAINNAEMRELALRITSLLDFLPLYDVDCQDNGNLEYDTYSQPEWKHNLFDHYLAVLYRFKDESGKEQFSGAVVKTREATPGKEIEAITRRMLDFSPRLKKLAGVPCQVYVRTVAANNAQPLTQDQCLRALHHLRVQSTSKTAPQAK”, the “soluble on expression in E. coli” value is listed as “not soluble”.

Take “MGSDKIHHHHHHMGKFLKKHYIMAPGPTPVPNDILTEGAKETIHHRTPQFVSIMEETLESAKYIFQTKHNVYAFASTGTGAMEAAVANLVSPGDKVIVVVAGKFGERWRELCQAYGADIVEIALEWGDAVTPEQIEEALNKNPDAKVVFTTYSETSTGTVIDLEGIARVTKEKDVVLVTDAVSALGAEPLKMDEWGVDLVVTGSQKGLMLPPGLALISLNDKAWGLVEKSRSPRYYFDLRAYRKSYPDNPYTPAVNMIYMLRKALQMIKEEGIENVWERHRILGDATRAAVKALGLELLSKRPGNVVTAVKVPEGIDGKQIPKIMRDKYGVTIAGGQAKLKGKIFRIAHLGYMSPFDTITAISALELTLKELGYEFELGVGVKAAEAVFAKEFIGE”: the “soluble on expression in E. coli” value is reported as “not soluble”.

For “MHTVAVSGPPETGFRSVVCARRWLANPYAPGRPTVRCMNVDDHAEELASDLGVDKAEVKENLQNLVEYSVPLEEAKRSLRRKYGDDDGAPSGGPTAVDIADVDTDSGNVTVTATVLTAGKRSIRYQGDDHVIGEGELADETGRISYTAWEEFGLEPGDTVTIGNASVREWEGSPELNFGESATVTSADGDIEMAAEVGGDRDLAALSAGDRGRNVEAVVTEVEERTIDGRDGETEILSGVLGDETARLPFTDWDPHGEIEAGASVRIEDVYVREFRGVPSVNVSEFSTVERLDHEVEVGGPTRMAIRDAVARGGAYDVELVGSVIDIRDGSGLIKRCPDCGRVVQTGQCRQHGAVEAEDDLRVKAVLDDGTDSVTAILDRELTADVYGGTLADAREQAREAMDHSVVADTIAEDVVGREFRVRGHLSVDEYGANLETIAFAERDDDPAARAAAFLAEVDALEHHHHHH”, the “soluble on expression in E. coli” value is “not soluble”.

“MSKGEKMKIKVGVLGATGSVGQRFVQLLADHPMFELTALAASERSAGKKYKDACYWFQDRDIPENIKDMVVIPTDPKHEEFEDVDIVFSALPSDLAKKFEPEFAKEGKLIFSNASAYRMEEDVPLVIPEVNADHLELIEIQREKRGWDGAIITNPNCSTICAVITLKPIMDKFGLEAVFIATMQAVSGAGYNGVPSMAILDNLIPFIKNEEEKMQTESLKLLGTLKDGKVELANFKISASCNRVAVIDGHTESIFVKTKEGAEPEEIKEVMDKFDPLKDLNLPTYAKPIVIREEIDRPQPRLDRNEGNGMSIVVGRIRKDPIFDVKYTALEHNTIRGAAGASVLNAEYFVKKYI”: the “soluble on expression in E. coli” value is “soluble”.

Consider “MAHHHHHHMTLIENLNSDKTFLENNQYTDEGVKVYEFIFGENYISSGGLEATKKILSDIELNENSKVLDIGSGLGGGCMYINEKYGAHTHGIDICSNIVNMANERVSGNNKIIFEANDILTKEFPENNFDLIYSRDAILHLSLENKNKLFQKCYKWLKPTGTLLITDYCATEKENWDDEFKEYVKQRKYTLITVEEYADILTACNFKNVVSKDLSDYWNQLLEVEHKYLHENKEEFLKLFSEKKFISLDDGWSRKIKDSKRKMQRWGYFKATKN”, for which the “soluble on expression in E. coli” value is recorded as “soluble”.

Regarding “MRPLTLHTPKPLVRAGGIPLIEYHLNALRAAGFHQLVINHAWLGQQIEDYLGDGQRFDLSIRYSAEGQPLETGGGIQRALPLLGAEPFVVVNGDVWTDYDFGALRMPLAGLAHLVLIDNPAHHPTGDFSLVDGQVRDDDSAGLRLTYSGIAILHPQLFADCEPGAFKLAPLLREAMHQGLVTGEHFKGRWVDVGTHERLAEVEQLLAETRLEHHHHHH”, the “soluble on expression in E. coli” value is given as “not soluble”.
